Experimental data as given in US20210371529A1 (Innovent, published 2021).

T1: mouse LAG-3 overexpressed on CHO cells (mouse, UniProt Q61790 24-521)
T1 construct: whole, on cells; also called CHO-mLAG-3 cells; mouse LAG-3 on the cell surface
T1 sequence (looked up): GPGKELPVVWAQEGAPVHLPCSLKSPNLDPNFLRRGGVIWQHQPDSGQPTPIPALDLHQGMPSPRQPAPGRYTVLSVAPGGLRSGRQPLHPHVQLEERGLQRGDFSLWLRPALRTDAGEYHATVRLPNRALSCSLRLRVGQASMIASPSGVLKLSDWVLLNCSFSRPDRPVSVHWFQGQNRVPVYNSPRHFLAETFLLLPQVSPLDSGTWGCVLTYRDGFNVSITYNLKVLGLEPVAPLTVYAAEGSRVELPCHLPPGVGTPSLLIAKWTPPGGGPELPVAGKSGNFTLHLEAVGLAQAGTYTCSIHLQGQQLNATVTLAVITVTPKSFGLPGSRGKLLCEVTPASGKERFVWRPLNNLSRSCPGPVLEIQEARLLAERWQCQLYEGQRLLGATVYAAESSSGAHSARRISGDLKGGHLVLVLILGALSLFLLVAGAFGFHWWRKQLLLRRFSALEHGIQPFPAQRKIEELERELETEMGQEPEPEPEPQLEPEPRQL

T2: human LAG-3-His (human, UniProt P18627 23-450)
T2 construct: Bought antigen (ArcoBiosystems), 100 nM in solution in the ForteBio assay; also called human LAG-3 antigen (ArcoBiosystems); hLAG-3; not shown: His tag
T2 sequence (looked up): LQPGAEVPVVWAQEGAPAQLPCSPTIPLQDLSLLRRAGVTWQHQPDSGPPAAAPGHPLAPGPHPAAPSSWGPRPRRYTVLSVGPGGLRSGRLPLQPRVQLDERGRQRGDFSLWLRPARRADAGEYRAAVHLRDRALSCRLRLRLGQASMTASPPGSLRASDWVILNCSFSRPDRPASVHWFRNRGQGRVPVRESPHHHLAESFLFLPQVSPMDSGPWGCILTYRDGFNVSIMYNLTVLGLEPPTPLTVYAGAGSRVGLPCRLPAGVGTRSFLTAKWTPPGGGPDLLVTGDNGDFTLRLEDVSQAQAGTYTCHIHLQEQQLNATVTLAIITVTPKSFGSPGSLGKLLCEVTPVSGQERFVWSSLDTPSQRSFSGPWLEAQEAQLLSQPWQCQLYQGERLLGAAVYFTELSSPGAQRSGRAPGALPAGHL

T3: human LAG-3 overexpressed on HEK293 cells (human, UniProt P18627 23-525)
T3 construct: whole, on cells; also called 293-hLAG-3 cells; hLAG-3 on the cell surface
T3 sequence (looked up): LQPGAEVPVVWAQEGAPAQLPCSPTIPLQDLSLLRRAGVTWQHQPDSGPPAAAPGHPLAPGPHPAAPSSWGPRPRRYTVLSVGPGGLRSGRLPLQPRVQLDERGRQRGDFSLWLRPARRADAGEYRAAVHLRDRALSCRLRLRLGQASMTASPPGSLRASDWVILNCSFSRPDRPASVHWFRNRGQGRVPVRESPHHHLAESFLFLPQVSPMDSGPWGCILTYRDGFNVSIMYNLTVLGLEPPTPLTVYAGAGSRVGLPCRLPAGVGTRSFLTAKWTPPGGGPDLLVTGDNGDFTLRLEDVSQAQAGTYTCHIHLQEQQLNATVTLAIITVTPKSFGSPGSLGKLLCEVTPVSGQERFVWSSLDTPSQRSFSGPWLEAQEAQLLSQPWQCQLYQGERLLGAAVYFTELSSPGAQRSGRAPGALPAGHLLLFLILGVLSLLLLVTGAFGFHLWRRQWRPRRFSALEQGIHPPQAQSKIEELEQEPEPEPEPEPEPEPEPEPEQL


Tests used:
[1] = target: T1, mouse LAG-3 overexpressed on CHO cells; test: flow cytometry (MFI) on CHO cells overexpressing mouse LAG-3; fit value from the EC50 table on the sheet for a flat curve (see non_binding); table has no unit of its own (concentration axis in nM)
human LAG-3-His [2] = target: T2, human LAG-3-His; test: BLI (ForteBio), antibody on AHQ tip, human LAG-3-His 100 nM in solution, univalent
Experimental: (§1) The purified antibody obtained as described above was loaded on-line onto an AHQ sensor (ForteBio) for ForteBio affinity assay. The sensor with the loaded antibody was then exposed to 100 nM of a human LAG-3 antigen (ArcoBiosystems) for 5 minutes before transferring the sensor to the assay buffer for dissociation for 5 minutes for dissociation rate measurement. Kinetic analysis was performed using a 1:1 binding model.

[3] = target: T3, human LAG-3 overexpressed on HEK293 …; test: flow cytometry on 293-hLAG-3 cells, MFI curve
Experimental: The binding of the 4 exemplary antibodies of the invention described above to human LAG-3 was measured in a flow cytometry-based assay. 293 cells (293-hLAG-3 cells) over-expressing human LAG-3 were generated by transfecting human embryonic kidney 293 cells (Invitrogen) with pCHO1.0 vectors (Invitrogen) carrying human LAG-3 cDNA (Sino Biological) cloned into multiple cloning sites (MCSs). 293-hLAG-3 cells (0.2×10⁶ cells) were mixed with different concentrations of antibodies (ADI-26789, ADI-26869 and reference 25F7) prepared as described above (the antibodies were serially three-fold diluted from a maximum concentration of 500 nM in PBS containing 0.1% bovine serum albumin (BSA) until the 8th concentration). The cells were incubated on ice for 30 min. The cells were then washed at least twice prior to addition of a secondary antibody (a PE-labeled goat anti-human IgG antibody, Southern Biotech, final concentration […]) diluted in 1:100, and incubated on ice (protected from light) for 30 minutes. The cells were washed at least twice and analyzed by flow cytometry. The flow cytometry assay was performed on an Accuri C6 system (BD Biosciences), and a concentration-dependent curve was fitted with GraphPad according to the mean fluorescence intensity (MFI).

human LAG-3-His [4] = target: T2, human LAG-3-His; test: BLI (ForteBio), antibody on AHQ tip, human LAG-3-His 100 nM in solution
Experimental: as §1

human PD-L1 = target: T4, human PD-L1 (human, UniProt Q9NZQ7 19-238); test: BLI (ForteBio), antibody loaded on sensor, human PD-L1 in solution
T4 construct: Bought antigen; also called human PD-L1 antigen (Acrobiosystems)
T4 sequence (Q9NZQ7 19-238 limits assumed): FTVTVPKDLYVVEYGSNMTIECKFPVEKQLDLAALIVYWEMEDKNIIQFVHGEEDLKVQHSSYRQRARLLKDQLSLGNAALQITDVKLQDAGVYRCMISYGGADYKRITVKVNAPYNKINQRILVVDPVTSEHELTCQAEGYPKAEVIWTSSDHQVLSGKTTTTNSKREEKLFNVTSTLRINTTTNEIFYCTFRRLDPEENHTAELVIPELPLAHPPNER
Experimental: The equilibrium dissociation constant (KD) for binding of the anti-PD-L1 antibody (HZ3266-IgG1N297A) to human PD-L1 was determined by biological optical interferometry (ForteBio). A ForteBio affinity assay of prior art was performed (Estep, P., et al, High throughput solution based measurement of antibody-antigen affinity and epitope binning. MAbs, 2013.5(2):270-8).
SD buffer, antibodies, and antigens (including human PD-L1, all purchased from Acrobiosystems) each of 100 μL were added to 96-well black polystyrene half area microplates (Greiner, 675076). The sensors were arranged according to the positions of the samples. The instrument settings were as follows: the operation procedures were Baseline, Loading ˜1 nm, Baseline, Association, and Dissociation. The run time of each procedure was dependent on the rates of association and dissociation. The rotation speed was 400 rpm, and the temperature was 30° C. The KD values were analyzed by ForteBio analysis software.

Row | Binder | EC50 [1] [nM] | Kd (human LAG-3-His [2]) [nM] | EC50 [3] [nM] | koff (human LAG-3-His [4]) [s⁻¹] | kon (human LAG-3-His [4]) [M⁻¹ s⁻¹] | Kd (human PD-L1) [nM]
1 | 25F7 (antibody, V domains shown) VH: QVQLQQWGAGLLKPSETLSLTCAVYGGSFSDYYWNWIRQPPGKGLEWIGEINHNGNTNSNPSLKSRVTLSLDTSKNQFSLKLRSVTAADTAVYYCAFGYSDYEYNWFDPWGQGTLVTVSS VL: EIVLTQSPATLSLSPGERATLSCRASQSISSYLAWYQQKPGQAPRLLIYDASNRATGIPARFSGSGSGTDFTLTISSLEPEDFAVYYCQQRSNWPLTFGQGTNLEIK | 0.857 | – | – | – | – | –
2 | BAP050 (antibody, V domains shown) VH: QIQLVQSGPELKKPGETVKISCKASGFTLTNYGMNWVRQTPGKGLKWMGWINTDTGEPTYADDFKGRFAFSLETSASTASLQINNLKNADTATYFCARNPPYYYGTNNAEAMDYWGQGTAVTVSS VL: DIQMTQTTSSLSASLGDRVTISCSSSQDISNYLNWYQQKPDGTVKVLIYYTSTLHLGVPSRFSGSGSGTDYSLTISNLELEDIATYYCQQYYNLPWTFGGGTKLEIK | ~0.7 | 0.844 | 1.41 | 0.0002 | 237000 | –
3 | ADI-26789 (antibody, human IgG4 S228P, kappa, F234A L235A, V domains shown, Fully human antibody from yeast display; IgG4 heavy chain constant region with kappa light chain; also called anti-human LAG-3 antibody ADI-26789; parent antibody) VH: EVQLVESGGGLVQPGRSLRLSCAASGFTFDDYAMHWVRQAPGKGLEWVSGISWNSGDIGYADSVKGRFTISRDNAKNSLYLQMNSLRAEDTALYYCAKGGYDGSYYGMDVWGQGTTVTVSS VL: not shown | – | 18.3 | 2.14 | 0.00389 | 212000 | –
4 | ADI-26869 (antibody, human IgG4 S228P, kappa, F234A L235A, V domains shown, Fully human antibody from yeast display; IgG4 heavy chain constant region with kappa light chain; expressed in HEK293 cells; also called anti-human LAG-3 antibody ADI-26869; parent antibody) VH: QLQLQESGPGLVKPSETLSLTCTVSGGSISSSDYYWGWIRQPPGKGLEWIGSIYYSGSTYYNPSLKSRVTISVDTSKNQFSLKLSSVTAADTAVYYCARVRTWDAAFDIWGQGTMVTVSS VL: DIQMTQSPSSLSASVGDRVTITCQASQDISNYLNWYQQKPGKAPKLLIYDASNLETGVPSRFSGSGSGTDFTFTISSLQPEDIATYYCQQVHALPPWTFGGGTKVEIKR | – | 7.88 | 2.91 | 0.00385 | 488000 | –
5 | HZ3266-IgG1N297A (antibody, V domains shown, also called anti-PD-L1 antibody (HZ3266-IgG1N297A)) VH: EVQLVQSGAEVKKPGATVKISCTASGFNIEDTYIHWVQQAPGQGLEWIGRIDPANDDTKYAPKFQGRATITADTSTDTAYMELSSLRSEDTAVYYCGRGLGRWFAYWGQGTLVTVSS VL: GIVMTQSPDSLAVSLGERATINCKASQDVINAVAWYQQKPGQSPKLLIYSASNRYTGVPDRFSGSGSGTDFTLTISSLQAEDLAVYYCQQHYSPPLTFGGGTKVEIKR | – | – | – | – | – | 0.724
